Laboratory results from US5747453.

Target: PTH receptor (rat) (UniProt P25961)
Sequence (P25961 27-591): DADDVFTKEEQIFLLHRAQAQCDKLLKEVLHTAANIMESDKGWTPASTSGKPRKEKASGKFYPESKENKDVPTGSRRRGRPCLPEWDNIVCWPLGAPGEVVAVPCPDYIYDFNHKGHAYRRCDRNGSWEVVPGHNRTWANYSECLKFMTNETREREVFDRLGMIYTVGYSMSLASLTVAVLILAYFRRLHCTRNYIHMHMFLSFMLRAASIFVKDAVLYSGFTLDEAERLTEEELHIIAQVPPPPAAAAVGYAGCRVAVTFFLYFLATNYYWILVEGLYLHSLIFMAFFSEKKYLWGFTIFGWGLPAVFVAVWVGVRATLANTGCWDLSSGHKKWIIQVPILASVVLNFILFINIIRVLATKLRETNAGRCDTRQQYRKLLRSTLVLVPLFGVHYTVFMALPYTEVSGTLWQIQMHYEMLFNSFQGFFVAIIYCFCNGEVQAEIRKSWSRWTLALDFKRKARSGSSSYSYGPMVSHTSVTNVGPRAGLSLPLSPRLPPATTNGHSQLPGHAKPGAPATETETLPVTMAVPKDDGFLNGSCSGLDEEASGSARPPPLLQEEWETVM

Sequence of PTH analog 1 (1-35) (ligand) (peptide): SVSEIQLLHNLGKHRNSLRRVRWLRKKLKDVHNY

| cAMP concentration (adenylate cyclase stimulation) in UMR106 cells, scintillation proximity assay [nM] | Substance |
| --- | --- |
| 0.9 | PTH analog 1 (1-35) (ligand) |
| 4.4 | Synthetic PTH having the wild-type sequence (ligand) |
